Measured values: the supplement of paper PMC10598134
± gives the standard deviation.

Test: collision cross section of modified peptide (TIMS, N2, iRT-aligned); higher = larger / more extended gas-phase ion
In short: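 On a timsTOF Pro/HT (dda-PASEF, nitrogen, ~2.4 mbar), synthetic peptide pools were analysed after a 120-min nanoflow C18 separation at 60 °C and identified in MaxQuant. Three reference ions served for 1/K0 calibration, with run-wise alignment to the median iRT peptide deviation. Collision cross section comes from the Mason-Schamp equation, using the most abundant feature per charge state averaged over 1–3 technical replicates.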

[1] = charge state: 2, modification: Dimethyl (K)
[2] = charge state: 3, modification: Dimethyl (K)
[3] = charge state: 2, modification: Succinyl
[4] = charge state: 2, modification: Phospho (Y)
[5] = charge state: 2, modification: Trimethyl (K)
[6] = charge state: 3, modification: Trimethyl (K)
[7] = charge state: 2, modification: Crotonyl
[8] = charge state: 2, modification: Nitro (Y)
[9] = charge state: 3, modification: Citrullination (R)
[10] = charge state: 2, modification: Methyl (K)
[11] = charge state: 3, modification: Methyl (K)
[12] = charge state: 2, modification: Butyryl
[13] = charge state: 3, modification: Butyryl
[14] = charge state: 3, modification: Succinyl
[15] = charge state: 2, modification: Malonyl
[16] = charge state: 2, modification: Hydroxyproline
[17] = charge state: 3, modification: Hydroxyproline
[18] = charge state: 2, modification: Citrullination (R)
[19] = charge state: 3, modification: Glutarylation
[20] = charge state: 2, modification: HexNAc (ST)
[21] = charge state: 2, modification: Acetyl (K)
[22] = charge state: 2, modification: Biotin
[23] = charge state: 3, modification: Biotin
[24] = charge state: 2, modification: Propionyl
[25] = charge state: 2, modification: GlyGly (K)
[26] = charge state: 3, modification: GlyGly (K)
[27] = charge state: 2, modification: hydroxyisobutyryl
[28] = charge state: 3, modification: hydroxyisobutyryl

SEASSEFAKK [_SEASSEFAK(Dimethyl (K))K_]
collision cross section [1]: 358.79 ± 0.58 Å² | collision cross section [2]: 422.66 ± 2.8 Å²

ASEALLKQLK [_ASEALLK(Succinyl)QLK_]
collision cross section [3]: 374.59 ± 0.24 Å²

FTEYETQVK [_FTEY(Phospho (Y))ETQVK_]
collision cross section [4]: 359.15 ± 0.75 Å²

SSGPGGQNVNKVNSK [_SSGPGGQNVNK(Trimethyl (K))VNSK_]
collision cross section [5]: 400.23 ± 1.6 Å² | collision cross section [6]: 442.26 ± 2.4 Å²

LQNSYQPTNK [_LQNSY(Phospho (Y))QPTNK_]
collision cross section [4]: 366.81 ± 0.064 Å²

VGEFSGANKEK [_VGEFSGANK(Succinyl)EK_]
collision cross section [3]: 357.27 ± 0.73 Å²

ITGKNQVTATK [_ITGK(Crotonyl)NQVTATK_]
collision cross section [7]: 369.54 ± 0.26 Å²

GEYFGEK [_GEY(Nitro (Y))FGEK_]
collision cross section [8]: 309.86 ± 0.71 Å²

HSPTLPEPGGLRLELPLSR [_HSPTLPEPGGLR(Citrullination (R))LELPLSR_]
collision cross section [9]: 513.82 ± 1.9 Å²

DDSFLGKLGGTLAR [_DDSFLGK(Methyl (K))LGGTLAR_]
collision cross section [10]: 408.16 ± 0.81 Å² | collision cross section [11]: 476.22 ± 3.5 Å²

DKALPLEAEVAPVK [_DK(Succinyl)ALPLEAEVAPVK_]
collision cross section [3]: 421.55 ± 0.36 Å²

SLGEPAAGEGSAKR [_SLGEPAAGEGSAK(Butyryl)R_]
collision cross section [12]: 388.15 ± 2 Å² | collision cross section [13]: 487.74 ± 4.3 Å²

DLGKFQVATDALK [_DLGK(Succinyl)FQVATDALK_]
collision cross section [3]: 409.86 ± 0.37 Å² | collision cross section [14]: 478.58 Å²

LEEVTGKLQVAR [_LEEVTGK(Malonyl)LQVAR_]
collision cross section [15]: 393.19 ± 0.021 Å²

VFSIISSEKELK [_VFSIISSEK(Malonyl)ELK_]
collision cross section [15]: 409.68 ± 0.66 Å²

GHPGPPGPPGEQGLPGLAGK [_GHPGPPGPP(Hydroxyproline)GEQGLPGLAGK_]
collision cross section [16]: 440.72 ± 0.83 Å² | collision cross section [17]: 495.73 ± 18 Å²

SGGYGGSRDYYSSR [_SGGYGGSR(Citrullination (R))DYYSSR_]
collision cross section [18]: 397.63 ± 1.4 Å²

VETTVTSLKTK [_VETTVTSLK(Malonyl)TK_]
collision cross section [15]: 384.89 ± 0.011 Å²

DSINFLDHINGKK [_DSINFLDHINGK(Gluratylation)K_]
collision cross section [19]: 460.36 ± 1.7 Å²

SQAGASELGPFSDPR [_SQAGASELGPFS(HexNAc (ST))DPR_]
collision cross section [20]: 425.39 ± 1.3 Å²

HTLLRAPAPELLPANVAGR [_HTLLR(Citrullination (R))APAPELLPANVAGR_]
collision cross section [9]: 517.22 ± 8.9 Å²

VGVEVPDVNIEGPEGKLK [_VGVEVPDVNIEGPEGK(Trimethyl (K))LK_]
collision cross section [5]: 479.14 ± 17 Å² | collision cross section [6]: 530.81 ± 6.1 Å²

SLYASSPGGVYATR [_SLYAS(HexNAc (ST))SPGGVYATR_]
collision cross section [20]: 421.13 ± 0.62 Å²

PSVSTKLISK [_PSVSTK(Crotonyl)LISK_]
collision cross section [7]: 357.15 ± 0.8 Å²

AGPNASIISLKSDK [_AGPNASIISLK(Malonyl)SDK_]
collision cross section [15]: 411.98 ± 0.71 Å²

TLQKQSVVYGGK [_TLQK(Acetyl (K))QSVVYGGK_]
collision cross section [21]: 392.07 ± 0.61 Å²

AGQKLIDVNHYAK [_AGQK(Biotin)LIDVNHYAK_]
collision cross section [22]: 451.79 ± 0.62 Å² | collision cross section [23]: 517.92 ± 3.1 Å²

PASGAGAGAGAGKR [_PASGAGAGAGAGK(Biotin)R_]
collision cross section [22]: 377.47 Å² | collision cross section [23]: 490.64 Å²

AGQKLIDVNHYAK [_AGQK(Succinyl)LIDVNHYAK_]
collision cross section [3]: 435.59 ± 1.1 Å² | collision cross section [14]: 483.35 ± 2.9 Å²

DASTLQSQKAEGTGDAK [_DASTLQSQK(Propionyl)AEGTGDAK_]
collision cross section [24]: 434.77 ± 2.9 Å²

GGPGSTLSFVGKR [_GGPGSTLSFVGK(Butyryl)R_]
collision cross section [12]: 388.34 ± 1.3 Å² | collision cross section [13]: 432.12 ± 3.2 Å²

ISALQGKLSK [_ISALQGK(Butyryl)LSK_]
collision cross section [12]: 358.56 ± 1.2 Å²

TLDEILQEKK [_TLDEILQEK(Succinyl)K_]
collision cross section [3]: 382.2 ± 5.9 Å²

IPPTYQIR [_IPPTY(Nitro (Y))QIR_]
collision cross section [8]: 343.35 ± 0.72 Å²

DTGEKLTVAENEAETK [_DTGEK(Propionyl)LTVAENEAETK_]
collision cross section [24]: 443.51 Å²

PGGEGPQCEKTTDVK [_PGGEGPQCEK(Succinyl)TTDVK_]
collision cross section [3]: 437.41 ± 1.1 Å²

SSFAYKDQNENR [_SSFAYK(Dimethyl (K))DQNENR_]
collision cross section [1]: 406.82 ± 0.47 Å² | collision cross section [2]: 455.28 ± 0.51 Å²

GSLEKGSPEDK [_GSLEK(GlyGly (K))GSPEDK_]
collision cross section [25]: 367.44 ± 0.9 Å² | collision cross section [26]: 425.67 ± 1.6 Å²

VDIDAPDVSIEGPDAKLK [_VDIDAPDVSIEGPDAK(Trimethyl (K))LK_]
collision cross section [5]: 465.65 ± 1.2 Å² | collision cross section [6]: 534.07 ± 1.8 Å²

ALLQAKASGK [_ALLQAK(hydroxyisobutyryl)ASGK_]
collision cross section [27]: 353.14 ± 1.3 Å²

LDEKENLSAK [_LDEK(Biotin)ENLSAK_]
collision cross section [22]: 382.87 Å²

FGTINIVHPKLGSYTK [_FGTINIVHPK(Butyryl)LGSYTK_]
collision cross section [12]: 477.38 ± 1.1 Å² | collision cross section [13]: 553.18 ± 2.9 Å²

FLQEFYQDDELGK [_FLQEFY(Nitro (Y))QDDELGK_]
collision cross section [8]: 428.07 ± 1.5 Å²

FSAYIKNSNPALNDNLEK [_FSAYIK(Crotonyl)NSNPALNDNLEK_]
collision cross section [7]: 486.61 ± 2.3 Å²

IVSGKDYNVTANSK [_IVSGK(Dimethyl (K))DYNVTANSK_]
collision cross section [1]: 404.57 ± 0.47 Å² | collision cross section [2]: 462.9 ± 1.6 Å²

LTEKELAEAASK [_LTEK(Gluratylation)ELAEAASK_]
collision cross section (charge state: 2, modification: Glutarylation): 395.13 ± 2.6 Å² | collision cross section [19]: 453.47 ± 1.2 Å²

SDSGKPYYYNSQTK [_SDSGK(GlyGly (K))PYYYNSQTK_]
collision cross section [25]: 428.35 ± 1.4 Å² | collision cross section [26]: 476.2 ± 1.7 Å²

STCTYVGAAK [_STCTY(Phospho (Y))VGAAK_]
collision cross section [4]: 346.22 ± 0.0011 Å²

VFSIISSEKELK [_VFSIISSEK(Crotonyl)ELK_]
collision cross section [7]: 412.67 ± 0.34 Å²

LQAAYAGDKADDIQK [_LQAAYAGDK(Biotin)ADDIQK_]
collision cross section [22]: 449.09 ± 0.62 Å² | collision cross section [23]: 511.95 ± 0.34 Å²

GEPGQGLRGLQGPPGK [_GEPGQGLRGLQGPP(Hydroxyproline)GK_]
collision cross section [16]: 408.26 ± 1.5 Å² | collision cross section [17]: 445.73 ± 1.3 Å²

VNALKNLQVK [_VNALK(GlyGly (K))NLQVK_]
collision cross section [25]: 383.13 ± 0.38 Å² | collision cross section [26]: 444.03 ± 1.9 Å²

AGPNASIISLKSDK [_AGPNASIISLK(Succinyl)SDK_]
collision cross section [3]: 414.91 ± 0.86 Å²

TQAYQDQKPGTSGLR [_TQAYQDQK(hydroxyisobutyryl)PGTSGLR_]
collision cross section [27]: 431.22 ± 0.52 Å² | collision cross section [28]: 484.99 ± 2.8 Å²

KYEEIDNAPEER [_K(hydroxyisobutyryl)YEEIDNAPEER_]
collision cross section [27]: 416.12 ± 0.31 Å² | collision cross section [28]: 497.05 ± 3.9 Å²

ILDLKTGTVK [_ILDLK(Trimethyl (K))TGTVK_]
collision cross section [5]: 360.39 ± 1.1 Å²

ALYETELADAR [_ALY(Nitro (Y))ETELADAR_]
collision cross section [8]: 387.94 ± 0.55 Å²

SSFAYKDQNENR [_SSFAYK(Methyl (K))DQNENR_]
collision cross section [10]: 422.28 ± 0.64 Å² | collision cross section [11]: 455.52 ± 4 Å²

VYIASSSGSTAIKK [_VYIASSSGSTAIK(Acetyl (K))K_]
collision cross section [21]: 414.5 ± 2.5 Å² | collision cross section (charge state: 3, modification: Acetyl (K)): 503.2 ± 1.2 Å²

TQDQISNIKYHEEFEK [_TQDQISNIK(Succinyl)YHEEFEK_]
collision cross section [14]: 549.89 ± 1.1 Å²

LDHLAEKFR [_LDHLAEK(Dimethyl (K))FR_]
collision cross section [1]: 368.82 ± 0.36 Å² | collision cross section [2]: 433.76 ± 2.1 Å²

HHTLRQAPQPQSSLQR [_HHTLR(Citrullination (R))QAPQPQSSLQR_]
collision cross section [9]: 502.84 ± 0.41 Å²

ITESVAETAQTIKK [_ITESVAETAQTIK(hydroxyisobutyryl)K_]
collision cross section [27]: 425.76 ± 3.1 Å² | collision cross section [28]: 520.92 ± 2 Å²

RGVGAGAIAK [_R(Citrullination (R))GVGAGAIAK_]
collision cross section [18]: 319.31 Å²

GSLEKGSPEDK [_GSLEK(Propionyl)GSPEDK_]
collision cross section [24]: 368.76 ± 0.94 Å²

ITGKNQVTATK [_ITGK(hydroxyisobutyryl)NQVTATK_]
collision cross section [27]: 372.92 ± 1.4 Å²

GRGTGEAEEEYVGPR [_GR(Methyl (R))GTGEAEEEYVGPR_]
collision cross section (charge state: 3, modification: Methyl (R)): 491.55 ± 1.6 Å²

RGGFAVQAK [_R(Citrullination (R))GGFAVQAK_]
collision cross section [18]: 326.29 ± 0.63 Å²

VTLEVGKVIQQGR [_VTLEVGK(Biotin)VIQQGR_]
collision cross section [22]: 422.26 Å² | collision cross section [23]: 501.27 Å²

GLPGEPGPR [_GLPGEP(Hydroxyproline)GPR_]
collision cross section [16]: 312.79 ± 1.3 Å²
